Data: the Human Domainome abundance scans (Beltran et al. 2025)
± gives the uncertainty stated by the source.

B1: MEF2-activating motif and SAP domain-containing transcriptional regulator, residues 170 to 204; numbered along this chain, Q6ZN01 (parent)
chain: LKLEELTVSELRQQLRLRGLPVSGTKSMLLERMRG

Variants of: B1
Experiment: abundance fitness (aPCA) (normalised: wild type 0, dead -1); higher = more abundant; growth selection in yeast, the domain comes from the species named
Conditions: Homo sapiens

Abundance fitness: each site, then its substitutions
R12: P -0.602 ± 0.096 | A -0.361 ± 0.11 | N -0.961 ± 0.49 | T -0.199 ± 0.11 | M -0.32 ± 0.13 | G -0.593 ± 0.076 | V -0.304 ± 0.1 | Y -0.495 ± 0.21 | L -0.523 ± 0.074 | C -0.387 ± 0.086
T7: Q -0.336 ± 0.07 | N -0.249 ± 0.4 | P -0.227 ± 0.15 | M -0.598 ± 0.16 | W -0.518 ± 0.099 | H -0.48 ± 0.098 | D -0.111 ± 0.2 | G -0.199 ± 0.054 | L -0.768 ± 0.099 | S -0.071 ± 0.065 | V -1.29 ± 0.13 | K -0.184 ± 0.097
L1: K -0.05 ± 0.22 | W -0.045 ± 0.11 | S -0.12 ± 0.068 | I 0.108 ± 0.073 | F -0.19 ± 0.13
L3: F 0.065 ± 0.16 | A -0.275 ± 0.16 | Y -0.556 ± 0.16 | G -0.304 ± 0.05 | P -0.14 ± 0.087 | V -0.272 ± 0.097 | D -0.098 ± 0.12 | R -0.416 ± 0.064 | S -0.22 ± 0.088 | Q -0.296 ± 0.089 | K 0.017 ± 0.11 | W -0.434 ± 0.089 | C -1.03 ± 0.15
L17: M -0.087 ± 0.062 | V -0.054 ± 0.14 | G -0.238 ± 0.069 | P -0.988 ± 0.15 | S -0.249 ± 0.089 | T -0.081 ± 0.11
G35: W -0.416 ± 0.13 | F -0.295 ± 0.11 | A -0.117 ± 0.13 | N -0.161 ± 0.28 | S -0.262 ± 0.36
S23: D 0.233 ± 0.14 | C -0.274 ± 0.16 | K -0.198 ± 0.075 | N -0.02 ± 0.12 | R -0.384 ± 0.076 | E 0.025 ± 0.068 | A -0.103 ± 0.062 | V -0.16 ± 0.092 | Y -0.106 ± 0.14 | M -0.222 ± 0.065 | P -0.838 ± 0.096 | W -0.883 ± 0.37
L20: V -0.575 ± 0.071 | I -0.646 ± 0.25 | A -0.296 ± 0.075 | F -0.329 ± 0.14 | Q -0.587 ± 0.27 | E -0.192 ± 0.055 | R -0.914 ± 0.095 | Y -0.284 ± 0.11 | G -0.669 ± 0.067
K26: C -0.761 ± 0.15 | Q -0.221 ± 0.069 | D -0.467 ± 0.32 | L -0.159 ± 0.1 | A -0.057 ± 0.064 | E -0.379 ± 0.17 | G -0.78 ± 0.1 | S -0.697 ± 0.1 | T -0.42 ± 0.097 | M -0.725 ± 0.33
R16: Y -0.613 ± 0.12 | F -0.086 ± 0.26 | P -0.96 ± 0.13 | E 0.001 ± 0.078 | A 0.04 ± 0.062 | M -0.07 ± 0.062 | W -0.129 ± 0.058 | K 0.284 ± 0.14 | G -0.081 ± 0.054
M28: S -0.36 ± 0.096 | V 0.05 ± 0.057 | G -0.512 ± 0.072 | P -0.973 ± 0.38 | I -0.015 ± 0.098 | A 0.022 ± 0.095 | Q 0.067 ± 0.32 | H -0.003 ± 0.14
R18: G -0.523 ± 0.097 | P -0.336 ± 0.39 | Q 0.03 ± 0.24 | L 0.074 ± 0.057 | N -0.299 ± 0.32 | T -0.239 ± 0.12 | E -0.14 ± 0.052 | S -0.206 ± 0.24 | M 0.126 ± 0.071 | V -0.128 ± 0.095
L15: S -0.215 ± 0.091 | D -0.599 ± 0.14 | Q -0.339 ± 0.096 | P -0.6 ± 0.12 | E -0.38 ± 0.099 | G -0.391 ± 0.058 | K -0.361 ± 0.099 | T -0.43 ± 0.089 | V -0.37 ± 0.073 | W -1 ± 0.16 | N -0.308 ± 0.14 | A 0.11 ± 0.068
E4: S -0.23 ± 0.11 | D -0.035 ± 0.11 | H -0.046 ± 0.14 | T -0.171 ± 0.061 | Y -0.804 ± 0.18 | V -1.08 ± 0.16 | A -0.667 ± 0.12 | G -0.574 ± 0.055 | L -0.919 ± 0.085 | F -0.679 ± 0.1 | C -0.518 ± 0.14 | Q -0.317 ± 0.16
E5: W -0.776 ± 0.14 | C -0.183 ± 0.18 | R -0.239 ± 0.084 | G -0.359 ± 0.1 | Q -0.306 ± 0.1 | S -0.188 ± 0.074 | Y -0.424 ± 0.11 | T -0.271 ± 0.11
V22: R -0.375 ± 0.087 | Y 0.298 ± 0.11 | P -0.701 ± 0.2 | L -0.209 ± 0.076 | T 0.152 ± 0.097
Q13: W -0.28 ± 0.072 | L -0.174 ± 0.061 | S -0.203 ± 0.074 | R -0.23 ± 0.095 | H 0.054 ± 0.16 | C -0.163 ± 0.1 | I -0.036 ± 0.099 | V -0.11 ± 0.067 | A -0.285 ± 0.11 | M -0.134 ± 0.097 | E -0.1 ± 0.1 | D -0.075 ± 0.09
S27: Y -0.725 ± 0.35 | C -0.455 ± 0.12 | R -0.154 ± 0.064 | A -0.1 ± 0.064 | T -0.108 ± 0.078 | L -0.281 ± 0.063 | V -0.349 ± 0.084 | G -0.108 ± 0.066 | D 0.069 ± 0.065 | P -0.19 ± 0.12 | F -1.15 ± 0.27 | Q 0.38 ± 0.41 | E 0.081 ± 0.05
S9: R -0.09 ± 0.05 | Y -0.345 ± 0.082 | K 0.084 ± 0.12 | W -0.142 ± 0.06 | Q 0.164 ± 0.069 | M 0.122 ± 0.1 | P -0.291 ± 0.2 | V -0.121 ± 0.056 | N 0.182 ± 0.19 | D 0.173 ± 0.074 | C -0.347 ± 0.13
E10: K -0.354 ± 0.14 | S -0.454 ± 0.072 | F -0.895 ± 0.39 | D -0.402 ± 0.15 | I -0.781 ± 0.5 | T -0.782 ± 0.17 | M -0.608 ± 0.11 | A -0.425 ± 0.1 | G -0.509 ± 0.12 | Q -0.216 ± 0.14
E31: S -0.27 ± 0.089 | G -0.279 ± 0.061 | V -1.16 ± 0.23 | Y -0.124 ± 0.18 | L -0.503 ± 0.072 | Q -0.227 ± 0.06 | C -0.745 ± 0.46
R34: E -0.089 ± 0.093 | Q 0.156 ± 0.068 | C -0.021 ± 0.21 | V -0.244 ± 0.1 | W -0.556 ± 0.071 | T -0.045 ± 0.079 | D -0.396 ± 0.2 | A -0.118 ± 0.068 | M -0.416 ± 0.49 | S -0.064 ± 0.089 | L -0.068 ± 0.15
R32: G -0.326 ± 0.067 | M -0.369 ± 0.23 | A -0.459 ± 0.11 | T 0 ± 0.1 | K -0.545 ± 0.16 | N -0.02 ± 0.19 | E -0.219 ± 0.1 | Q -0.232 ± 0.1 | I -0.507 ± 0.12 | C -0.611 ± 0.13
K2: P -0.572 ± 0.12 | W -0.159 ± 0.14 | N -0.128 ± 0.17 | C -0.136 ± 0.07 | D -0.496 ± 0.26
L11: P -0.64 ± 0.12 | R -0.565 ± 0.097 | I -0.206 ± 0.11 | V -0.59 ± 0.074 | F -1.08 ± 0.34 | Y -0.497 ± 0.091 | S -0.542 ± 0.07 | Q -0.568 ± 0.1 | K -0.623 ± 0.13 | W -0.897 ± 0.11
L30: A -0.356 ± 0.069 | W -0.456 ± 0.17 | D -0.376 ± 0.13 | E -0.251 ± 0.091 | C -0.197 ± 0.17 | I 0.394 ± 0.25 | Q 0.004 ± 0.084 | S -0.601 ± 0.081 | P -0.507 ± 0.066 | Y -0.915 ± 0.2 | R -0.283 ± 0.07
L6: C -0.299 ± 0.19 | T -0.632 ± 0.11 | A -0.314 ± 0.067 | W -0.175 ± 0.072 | G -0.533 ± 0.059 | Q -0.236 ± 0.07 | H -0.434 ± 0.11 | V -0.399 ± 0.078 | N -0.166 ± 0.11 | Y -0.384 ± 0.12 | E -0.369 ± 0.11
L29: M -0.338 ± 0.21 | W -0.594 ± 0.11 | D -0.51 ± 0.072 | E -0.22 ± 0.14 | F -0.589 ± 0.14 | N -0.683 ± 0.3 | R -0.616 ± 0.072 | V -0.842 ± 0.074 | K -0.31 ± 0.17 | P -0.909 ± 0.22 | T -0.297 ± 0.08 | S -0.545 ± 0.061
T25: D 0.215 ± 0.096 | C -0.43 ± 0.13 | G -0.27 ± 0.059 | Q -0.441 ± 0.15 | K -0.204 ± 0.1 | H -0.295 ± 0.18 | M -0.517 ± 0.2 | L -0.581 ± 0.075 | E -0.051 ± 0.06 | R -0.497 ± 0.054 | V -0.435 ± 0.073 | F -0.608 ± 0.34
G19: A -0.746 ± 0.08 | V -1.02 ± 0.1 | C -0.559 ± 0.092 | E -0.261 ± 0.072 | F -0.639 ± 0.14 | R -0.337 ± 0.066 | S -0.34 ± 0.065 | T -0.683 ± 0.11 | K -0.227 ± 0.086 | W -0.863 ± 0.092
Q14: G -0.35 ± 0.063 | T -0.45 ± 0.16 | N -0.441 ± 0.14 | H -0.192 ± 0.095 | R -0.174 ± 0.053 | Y -0.326 ± 0.25 | K -0.175 ± 0.35 | W -0.141 ± 0.084 | D -0.551 ± 0.07 | F -0.401 ± 0.13 | A 0.135 ± 0.084
G24: K -1.25 ± 0.2 | Q -0.935 ± 0.16 | L -1.01 ± 0.26 | M -0.768 ± 0.13 | W -0.41 ± 0.21 | S -0.817 ± 0.13
P21: V -0.335 ± 0.086 | G -0.297 ± 0.048 | K -0.494 ± 0.082 | S -0.129 ± 0.061 | T -0.235 ± 0.096 | E -0.036 ± 0.068 | W -0.854 ± 0.066 | D -0.094 ± 0.059 | F -1.08 ± 0.26
V8: G -0.429 ± 0.06 | C -0.486 ± 0.49 | M -0.206 ± 0.17 | D -0.38 ± 0.073 | A 0.142 ± 0.093 | L -0.099 ± 0.055 | S -0.28 ± 0.068 | P -0.39 ± 0.091
M33: L 0.206 ± 0.1 | A -0.161 ± 0.08 | F -0.516 ± 0.091 | E -0.146 ± 0.091 | R -0.66 ± 0.084 | W -0.538 ± 0.11 | S -0.34 ± 0.065 | C -0.235 ± 0.077 | G -0.343 ± 0.078
